Test results reported in the Immune Epitope Database (IEDB).

Key:
Assay in all cases: IEDB peptide-MHC binding, purified MHC/competitive/radioactivity; filed as Kd, often an IC50 or EC50 that approximates it; ≥ and ≤ were set here for values at or beyond the usual limits of such assays
HLA-A*31:01 = biological target: HLA-A*31:01
HLA-A*11:01 = biological target: HLA-A*11:01
HLA-A*68:01 = biological target: HLA-A*68:01
HLA-A*33:01 = biological target: HLA-A*33:01
HLA-A*03:01 = biological target: HLA-A*03:01
HLA-A*02:06 = details: source organism: Homo sapiens
HLA-A*02:03 = biological target: HLA-A*02:03
[1] = source organism: Vaccinia virus WR
[2] = source organism: Mammarenavirus whitewaterense
[3] = source organism: Mammarenavirus machupoense
[4] = source organism: Mammarenavirus lassaense
[5] = source organism: Lassa virus Josiah
[6] = source organism: SARS coronavirus Tor2
[7] = source organism: Mammarenavirus brazilense

Work on SINKVYGRY yielded a Kd (HLA-A*31:01; [1]) of 140 nM, a Kd (HLA-A*11:01; [1]) of 195 nM and a Kd (HLA-A*68:01; [1]) of 1990 nM. For the same sequence, the Kd (HLA-A*33:01; [1]) was no less than 77700 nM and the Kd (HLA-A*03:01; [1]) was 526 nM.
SLSPNDTTWI showed a Kd (HLA-A*31:01; [2]) of no less than 32300 nM, a Kd (HLA-A*11:01; [2]) of no less than 69700 nM and a Kd (HLA-A*68:01; [2]) of no less than 70100 nM. For the same sequence, the Kd (HLA-A*33:01; [2]) was no less than 60700 nM and the Kd (HLA-A*03:01; [2]) was no less than 34600 nM.
In the case of SLVENNFFTK, the Kd (HLA-A*31:01; [1]) is reported as 388 nM, the Kd (HLA-A*11:01; [1]) is reported as 9.71 nM and the Kd (HLA-A*68:01; [1]) is reported as 119 nM. For the same sequence, the Kd (HLA-A*33:01; [1]) was 704 nM and the Kd (HLA-A*03:01; [1]) was 229 nM.
SSFDYCSTNH showed a Kd (HLA-A*31:01; [3]) of 6320 nM, a Kd (HLA-A*11:01; [3]) of 1890 nM and a Kd (HLA-A*68:01; [3]) of 249 nM. For the same sequence, the Kd (HLA-A*33:01; [3]) was 15600 nM and the Kd (HLA-A*03:01; [3]) was 17100 nM.
In the case of STQQNKLVIR, the Kd (HLA-A*31:01; [1]) is reported as 154 nM, the Kd (HLA-A*11:01; [1]) is reported as 2240 nM and the Kd (HLA-A*68:01; [1]) is reported as 631 nM. For the same sequence, the Kd (HLA-A*33:01; [1]) was 4470 nM and the Kd (HLA-A*03:01; [1]) was 17900 nM.
Sequence SVANGVPVH has a Kd (HLA-A*31:01; [4]) of no less than 30300 nM, a Kd (HLA-A*11:01; [4]) of 9780 nM and a Kd (HLA-A*68:01; [4]) of 8070 nM. The Kd (HLA-A*33:01; [4]) was no less than 77700 nM and the Kd (HLA-A*03:01; [4]) was 2270 nM.
Sequence TAVAKCNEKH has a Kd (HLA-A*31:01; [5]) of no less than 40100 nM, a Kd (HLA-A*11:01; [5]) of no less than 69700 nM and a Kd (HLA-A*68:01; [5]) of no less than 70100 nM. The Kd (HLA-A*33:01; [5]) was no less than 61800 nM and the Kd (HLA-A*03:01; [5]) was no less than 70000 nM.
In the case of TFQLLNMIK, the Kd (HLA-A*31:01; [1]) is reported as 326 nM, the Kd (HLA-A*11:01; [1]) is reported as 19.5 nM and the Kd (HLA-A*68:01; [1]) is reported as 11.5 nM. It also gave a Kd (HLA-A*33:01; [1]) of 102 nM and a Kd (HLA-A*03:01; [1]) of 20.8 nM.
TIREFPRKDK gave a Kd (HLA-A*31:01; [1]) of 295 nM, a Kd (HLA-A*11:01; [1]) of 16200 nM and a Kd (HLA-A*68:01; [1]) of 7280 nM. The Kd (HLA-A*33:01; [1]) was no less than 40900 nM and the Kd (HLA-A*03:01; [1]) was 13100 nM.
With TLAILTALR the Kd (HLA-A*31:01; [6]) was 326 nM, the Kd (HLA-A*11:01; [6]) was 4460 nM and the Kd (HLA-A*68:01; [6]) was 117 nM. It also gave a Kd (HLA-A*33:01; [6]) of 833 nM and a Kd (HLA-A*03:01; [6]) of 3670 nM.
TLEEAKTALK was tested, and the Kd (HLA-A*31:01; [6]) was no less than 47600 nM, the Kd (HLA-A*11:01; [6]) was 4630 nM and the Kd (HLA-A*68:01; [6]) was no less than 10000 nM. The Kd (HLA-A*33:01; [6]) was no less than 70000 nM and the Kd (HLA-A*03:01; [6]) was 1350 nM.
With TLKYPIEHGI the Kd (HLA-A*02:06) was no less than 26400 nM.
For TLNHVLALKY, the Kd (HLA-A*31:01; [1]) was no less than 69100 nM, the Kd (HLA-A*11:01; [1]) was 1150 nM and the Kd (HLA-A*68:01; [1]) was 13200 nM. For the same sequence, the Kd (HLA-A*33:01; [1]) was no less than 52700 nM and the Kd (HLA-A*03:01; [1]) was 168 nM.
Work on TMWHVTRGAV yielded a Kd (HLA-A*02:03; source organism: Dengue virus 2 Jamaica/1409/1983) of 382 nM.
Work on TQVYIAVNDK yielded a Kd (HLA-A*31:01; [6]) of 6720 nM, a Kd (HLA-A*11:01; [6]) of 720 nM and a Kd (HLA-A*68:01; [6]) of 1330 nM. It also gave a Kd (HLA-A*33:01; [6]) of 9360 nM and a Kd (HLA-A*03:01; [6]) of 186 nM.
TTYMDTFFR gave a Kd (HLA-A*31:01; [1]) of 16.6 nM, a Kd (HLA-A*11:01; [1]) of 1.98 nM and a Kd (HLA-A*68:01; [1]) of 0.0507 nM. The Kd (HLA-A*33:01; [1]) was 10.6 nM and the Kd (HLA-A*03:01; [1]) was 10.4 nM.
VAGTGVQFY was tested, and the Kd (HLA-A*31:01; [1]) was no less than 53900 nM, the Kd (HLA-A*11:01; [1]) was no less than 26500 nM and the Kd (HLA-A*68:01; [1]) was no less than 77700 nM. It also gave a Kd (HLA-A*33:01; [1]) of no less than 77700 nM and a Kd (HLA-A*03:01; [1]) of 7270 nM.
In the case of VLFSIFYKDY, the Kd (HLA-A*31:01; [1]) is reported as 1200 nM, the Kd (HLA-A*11:01; [1]) is reported as 972 nM and the Kd (HLA-A*68:01; [1]) is reported as 1160 nM. For the same sequence, the Kd (HLA-A*33:01; [1]) was 3090 nM and the Kd (HLA-A*03:01; [1]) was 668 nM.
Sequence VLIFILLTA has a Kd (HLA-A*02:03; source organism: Dengue virus 2 Peru/IQT2913/1996) of 140 nM.
In the case of VLSIPPTAGI, the Kd (HLA-A*02:03; source organism: Dengue virus 4 Philippines/H241/1956) is reported as 226 nM.
Sequence VQIGEYTFEK has a Kd (HLA-A*31:01; [6]) of 1660 nM, a Kd (HLA-A*11:01; [6]) of 22 nM and a Kd (HLA-A*68:01; [6]) of 350 nM. For the same sequence, the Kd (HLA-A*33:01; [6]) was 11200 nM and the Kd (HLA-A*03:01; [6]) was 221 nM.
For VQSKMSDVK, the Kd (HLA-A*31:01; [6]) was 7070 nM, the Kd (HLA-A*11:01; [6]) was 198 nM and the Kd (HLA-A*68:01; [6]) was no less than 53500 nM. The Kd (HLA-A*33:01; [6]) was no less than 25000 nM and the Kd (HLA-A*03:01; [6]) was 4160 nM.
With VSTCFKLMLK the Kd (HLA-A*31:01; [6]) was 806 nM, the Kd (HLA-A*11:01; [6]) was 15.3 nM and the Kd (HLA-A*68:01; [6]) was 472 nM. It also gave a Kd (HLA-A*33:01; [6]) of 5700 nM and a Kd (HLA-A*03:01; [6]) of 112 nM.
For VTYTEIEPK, the Kd (HLA-A*31:01; [6]) was 1360 nM, the Kd (HLA-A*11:01; [6]) was 7.49 nM and the Kd (HLA-A*68:01; [6]) was 147 nM. For the same sequence, the Kd (HLA-A*33:01; [6]) was no less than 25700 nM and the Kd (HLA-A*03:01; [6]) was 31.2 nM.
With YLCGFIKQK the Kd (HLA-A*31:01; [6]) was 3430 nM, the Kd (HLA-A*11:01; [6]) was 1650 nM and the Kd (HLA-A*68:01; [6]) was 6000 nM. The Kd (HLA-A*33:01; [6]) was no less than 46700 nM and the Kd (HLA-A*03:01; [6]) was 511 nM.
With YLGSANMDWR the Kd (HLA-A*31:01; [1]) was 1350 nM, the Kd (HLA-A*11:01; [1]) was 921 nM and the Kd (HLA-A*68:01; [1]) was 1070 nM. It also gave a Kd (HLA-A*33:01; [1]) of 3690 nM and a Kd (HLA-A*03:01; [1]) of 850 nM.
With YLRLYIILAR the Kd (HLA-A*31:01; [1]) was 12.7 nM, the Kd (HLA-A*11:01; [1]) was 1470 nM and the Kd (HLA-A*68:01; [1]) was 14.8 nM. The Kd (HLA-A*33:01; [1]) was 117 nM and the Kd (HLA-A*03:01; [1]) was 160 nM.
YSISNDLLY was tested, and the Kd (HLA-A*31:01; [1]) was 249 nM, the Kd (HLA-A*11:01; [1]) was 337 nM and the Kd (HLA-A*68:01; [1]) was 2310 nM. For the same sequence, the Kd (HLA-A*33:01; [1]) was no less than 65500 nM and the Kd (HLA-A*03:01; [1]) was 1190 nM.
Work on YVEKEENMDK yielded a Kd (HLA-A*31:01; [1]) of 1270 nM, a Kd (HLA-A*11:01; [1]) of 2170 nM and a Kd (HLA-A*68:01; [1]) of 3370 nM. It also gave a Kd (HLA-A*33:01; [1]) of no less than 69100 nM and a Kd (HLA-A*03:01; [1]) of no less than 70100 nM.
In the case of YVNHTASGEH, the Kd (HLA-A*31:01; [7]) is reported as no less than 70000 nM, the Kd (HLA-A*11:01; [7]) is reported as no less than 69700 nM and the Kd (HLA-A*68:01; [7]) is reported as no less than 21700 nM. For the same sequence, the Kd (HLA-A*33:01; [7]) was no less than 69000 nM and the Kd (HLA-A*03:01; [7]) was no less than 70000 nM.
